Results from publication PMC3843708, “Mutational Analysis of Sclerostin Shows Importance of the Flexible Loop and the Cystine-Knot for Wnt-Signaling Inhibition” (PLoS ONE, 2013).
Each block holds one molecule with its values, some of them ahead of it.

How the values were obtained:
[1] = molecular target: LRP6 E3E4 (Homo sapiens) (UniProt O75581); conditions: cited from earlier work
[2] = molecular target: LRP6 E1E2 (Homo sapiens) (UniProt O75581); conditions: cited from earlier work
[3] = molecular target: LRP6 second propeller domain (Homo sapiens) (UniProt O75581); conditions: cited from earlier work
[4] = molecular target: LRP6 first propeller domain (Homo sapiens) (UniProt O75581); conditions: cited from earlier work
[5] = molecular target: human LRP6 (human, UniProt O75581 20-1613); test: cell-based or functional assay
[6] = molecular target: T1, human LRP6 protein fragment comprising propeller domains E1 and E2 (LRP6E1E2) (human, UniProt O75581 20-630); test: cell-based or functional assay
T1 sequence (looked up): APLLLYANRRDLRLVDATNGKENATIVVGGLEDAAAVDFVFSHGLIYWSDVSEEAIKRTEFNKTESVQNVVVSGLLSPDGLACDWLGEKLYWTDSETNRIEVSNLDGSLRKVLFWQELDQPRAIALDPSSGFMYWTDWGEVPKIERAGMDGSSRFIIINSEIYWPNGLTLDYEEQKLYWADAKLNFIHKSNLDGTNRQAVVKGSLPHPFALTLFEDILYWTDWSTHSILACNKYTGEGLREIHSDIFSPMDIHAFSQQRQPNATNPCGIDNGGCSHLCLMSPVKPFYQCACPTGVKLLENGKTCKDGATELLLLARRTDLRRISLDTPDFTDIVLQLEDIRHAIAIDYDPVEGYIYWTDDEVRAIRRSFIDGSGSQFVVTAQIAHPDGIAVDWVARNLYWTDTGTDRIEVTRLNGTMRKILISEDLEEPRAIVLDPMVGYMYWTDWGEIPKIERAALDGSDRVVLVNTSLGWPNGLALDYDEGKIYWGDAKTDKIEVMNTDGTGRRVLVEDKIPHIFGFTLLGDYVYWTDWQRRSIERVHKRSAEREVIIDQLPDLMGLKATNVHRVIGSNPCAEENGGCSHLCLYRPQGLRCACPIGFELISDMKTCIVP

Sequence of LRP6 E3E4 (Homo sapiens) (O75581 631-1246): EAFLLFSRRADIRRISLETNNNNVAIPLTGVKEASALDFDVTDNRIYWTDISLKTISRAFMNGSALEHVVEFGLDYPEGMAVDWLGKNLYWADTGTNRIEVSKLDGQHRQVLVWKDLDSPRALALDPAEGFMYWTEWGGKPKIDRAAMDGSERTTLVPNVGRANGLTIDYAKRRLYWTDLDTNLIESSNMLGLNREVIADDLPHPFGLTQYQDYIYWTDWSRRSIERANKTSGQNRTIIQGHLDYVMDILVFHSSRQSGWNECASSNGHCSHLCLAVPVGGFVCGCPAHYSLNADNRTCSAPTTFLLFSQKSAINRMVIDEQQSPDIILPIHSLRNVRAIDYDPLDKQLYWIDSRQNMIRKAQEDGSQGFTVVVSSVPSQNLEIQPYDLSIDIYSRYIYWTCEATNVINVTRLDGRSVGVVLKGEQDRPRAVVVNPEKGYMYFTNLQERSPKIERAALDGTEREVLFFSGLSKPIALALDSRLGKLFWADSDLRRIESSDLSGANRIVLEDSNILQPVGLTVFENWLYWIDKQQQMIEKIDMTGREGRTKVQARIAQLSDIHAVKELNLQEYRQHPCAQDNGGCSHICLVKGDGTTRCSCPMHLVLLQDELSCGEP

Molecule: Dkk1 (from UniProt O94907)
Kd [1]: 60 nM | Kd [2]: 60 nM

Molecule: Sclerostin (from UniProt Q9BQB4)
Kd [3]: 1300 nM | Kd [4]: 60 nM

B1: wildtype full-length murine Sclerostin (natural protein, UniProt Q99P68 24-211, looked up)
chain: QGWQAFRNDATEVIPGLGEYPEPPPENNQTMNRAENGGRPPHHPYDAKDVSEYSCRELHYTRFLTDGPCRSAKPVTELVCSGQCGPARLLPNAIGRVKWWRPNGPDFRCIPDRYRAQRVQLLCPGGAAPRSRKVRLVASCKCKRLTRFHNQSELKDFGPETARPQKGRKPRPGARGAKANQAELENAY
modifications: 125I-iodinated (Chloramine T) where used as radioligand; biotinylated (EZ-Link Sulfo-NHS-LC-Biotin, molar ratio 1:1.5) in the pull-down
IC50 of inhibition of Wnt1-driven SuperTOPFlash luciferase reporter, HEK-293TSA M50 cells transfected with mWnt1 [5]: 10 nM

B5: Sclerostin Alaloop (natural protein, murine, UniProt Q99P68 24-211, looked up)
chain: QGWQAFRNDATEVIPGLGEYPEPPPENNQTMNRAENGGRPPHHPYDAKDVSEYSCRELHYTRFLTDGPCRSAKPVTELVCSGQCGPARLSPGASGARSGSAPAGPDFRCIPDRYRAQRVQLLCPGGAAPRSRKVRLVASCKCKRLTRFHNQSELKDFGPETARPQKGRKPRPGARGAKANQAELENAY
modifications: 125I-iodinated (Chloramine T) where used as radioligand
IC50 of inhibition of Wnt1-driven SuperTOPFlash luciferase reporter, HEK-293TSA M50 cells transfected with mWnt1 [5]: 831 nM | IC50 of inhibition of Wnt3a-driven SuperTOPFlash luciferase reporter, HEK-293TSA M50 cells with 1.5 nM mWnt3a [5]: 1110 nM

The remaining lines, values ahead:

fold decrease against wildtype of the efficiency to inhibit Wnt1-driven SuperTOPFlash luciferase reporter (supernatants of HEK Freestyle cells expressing the variant) [6]: 10 fold
B2: Sclerostin C84AC142R (natural protein, murine, UniProt Q99P68 24-211, looked up)
chain: QGWQAFRNDATEVIPGLGEYPEPPPENNQTMNRAENGGRPPHHPYDAKDVSEYSCRELHYTRFLTDGPCRSAKPVTELVCSGQAGPARLLPNAIGRVKWWRPNGPDFRCIPDRYRAQRVQLLCPGGAAPRSRKVRLVASCKRKRLTRFHNQSELKDFGPETARPQKGRKPRPGARGAKANQAELENAY
modifications: biotinylated (EZ-Link Sulfo-NHS-LC-Biotin, molar ratio 1:1.5) in the pull-down

IC50 of inhibition of Wnt1-driven SuperTOPFlash luciferase reporter, HEK-293TSA M50 cells transfected with mWnt1 [5]: 26.9 nM
B3: Sclerostin I94A (natural protein, murine, UniProt Q99P68 24-211, looked up)
chain: QGWQAFRNDATEVIPGLGEYPEPPPENNQTMNRAENGGRPPHHPYDAKDVSEYSCRELHYTRFLTDGPCRSAKPVTELVCSGQCGPARLLPNAAGRVKWWRPNGPDFRCIPDRYRAQRVQLLCPGGAAPRSRKVRLVASCKCKRLTRFHNQSELKDFGPETARPQKGRKPRPGARGAKANQAELENAY

IC50 of inhibition of Wnt1-driven SuperTOPFlash luciferase reporter, HEK-293TSA M50 cells transfected with mWnt1 [5]: 196 nM
B4: Sclerostin N92A (natural protein, murine, UniProt Q99P68 24-211, looked up)
chain: QGWQAFRNDATEVIPGLGEYPEPPPENNQTMNRAENGGRPPHHPYDAKDVSEYSCRELHYTRFLTDGPCRSAKPVTELVCSGQCGPARLLPAAIGRVKWWRPNGPDFRCIPDRYRAQRVQLLCPGGAAPRSRKVRLVASCKCKRLTRFHNQSELKDFGPETARPQKGRKPRPGARGAKANQAELENAY

IC50 of inhibition of Wnt1-driven SuperTOPFlash luciferase reporter, HEK-293TSA M50 cells transfected with mWnt1 [5]: 806 nM | IC50 of inhibition of Wnt3a-driven SuperTOPFlash luciferase reporter, HEK-293TSA M50 cells with 1.5 nM mWnt3a [5]: 655 nM
B6: Sclerostin ΔLoop (natural protein, murine, UniProt Q99P68 24-211, looked up)
chain: QGWQAFRNDATEVIPGLGEYPEPPPENNQTMNRAENGGRPPHHPYDAKDVSEYSCRELHYTRFLTDGPCRSAKPVTELVCSGQCGPARLGSGPDFRCIPDRYRAQRVQLLCPGGAAPRSRKVRLVASCKCKRLTRFHNQSELKDFGPETARPQKGRKPRPGARGAKANQAELENAY
modifications: 125I-iodinated (Chloramine T) where used as radioligand; biotinylated (EZ-Link Sulfo-NHS-LC-Biotin, molar ratio 1:1.5) in the pull-down
